B1: type 1 human TH-Ser31 peptide EAIMSPRFK (peptide)
peptide: EAIMSPRFK
B2: type 1 human TH-Ser31 peptide YQAEAIMSPRFIGRRQ (peptide)
peptide: YQAEAIMSPRFIGRRQ
B3: ERKtide (peptide)
peptide: ATGPLSPFGRR
B4: MBPtide (Thr97) … (peptide)
peptide: APRTPGGR
B5: rat TH-Ser31 peptide KQAEAVTSPR (peptide)
peptide: KQAEAVTSPR

Target: extracellular signal-regulated protein kinase 2 (purified, recombinant, activated ERK2)
Experiment: cell-based or functional assay

extracellular signal-regulated protein kinase 2 (purified, recombinant, activated ERK2), sequence (P28482 2-360): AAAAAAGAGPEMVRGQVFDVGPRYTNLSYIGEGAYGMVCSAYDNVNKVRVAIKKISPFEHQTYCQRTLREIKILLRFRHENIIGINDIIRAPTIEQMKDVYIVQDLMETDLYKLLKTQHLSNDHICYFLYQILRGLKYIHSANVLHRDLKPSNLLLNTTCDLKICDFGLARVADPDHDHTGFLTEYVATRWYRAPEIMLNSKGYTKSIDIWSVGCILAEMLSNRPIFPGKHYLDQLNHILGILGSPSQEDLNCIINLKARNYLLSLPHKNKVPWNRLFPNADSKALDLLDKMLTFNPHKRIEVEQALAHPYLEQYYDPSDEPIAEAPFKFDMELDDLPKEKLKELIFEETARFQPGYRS

In order of falling V/K:
1. B3  136
2. B2  80
3. B1  28
4. B4  23
5. B5  5
